Data on four molecules can be found in patent US20240199757A1.

Assay [1] concerns the target T1, human NT5E expressed on MDA-MB-231 cells (human) (UniProt P21589).
T1 sequence (looked up): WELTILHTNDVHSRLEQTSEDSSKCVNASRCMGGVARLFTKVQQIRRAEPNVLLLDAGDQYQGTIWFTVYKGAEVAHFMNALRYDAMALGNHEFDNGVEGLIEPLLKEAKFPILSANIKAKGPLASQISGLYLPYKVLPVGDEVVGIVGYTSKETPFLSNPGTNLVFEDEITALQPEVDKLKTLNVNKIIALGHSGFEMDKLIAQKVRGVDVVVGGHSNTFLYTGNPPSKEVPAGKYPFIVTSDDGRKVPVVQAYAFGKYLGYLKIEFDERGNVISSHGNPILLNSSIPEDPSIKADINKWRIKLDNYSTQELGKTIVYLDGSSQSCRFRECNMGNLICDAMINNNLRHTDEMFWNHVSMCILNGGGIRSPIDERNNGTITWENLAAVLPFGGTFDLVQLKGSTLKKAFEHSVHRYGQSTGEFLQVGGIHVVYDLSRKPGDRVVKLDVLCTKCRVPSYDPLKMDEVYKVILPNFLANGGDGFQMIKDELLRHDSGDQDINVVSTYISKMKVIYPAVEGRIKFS
Put plainly: cell-based or functional assay.

Assay [2] deals with T2, murine NT5E expressed on 4T1 cells (murine) (UniProt Q61503).
T2 sequence (looked up): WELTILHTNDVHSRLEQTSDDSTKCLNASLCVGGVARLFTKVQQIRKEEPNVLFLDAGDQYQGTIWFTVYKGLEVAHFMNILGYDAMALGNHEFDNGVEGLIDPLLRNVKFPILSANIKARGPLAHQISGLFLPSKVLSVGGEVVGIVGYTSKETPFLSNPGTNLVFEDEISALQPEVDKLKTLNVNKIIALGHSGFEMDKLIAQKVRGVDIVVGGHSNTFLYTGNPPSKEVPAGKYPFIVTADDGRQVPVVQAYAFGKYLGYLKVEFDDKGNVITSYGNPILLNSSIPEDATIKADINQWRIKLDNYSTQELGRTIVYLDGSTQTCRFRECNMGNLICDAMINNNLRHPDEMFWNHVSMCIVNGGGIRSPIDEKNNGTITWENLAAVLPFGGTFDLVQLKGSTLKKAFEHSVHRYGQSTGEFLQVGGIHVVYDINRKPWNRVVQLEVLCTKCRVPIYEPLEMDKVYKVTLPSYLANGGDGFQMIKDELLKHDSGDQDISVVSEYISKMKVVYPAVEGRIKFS
Put plainly: cell-based or functional assay.

Assay [3] addresses hNT5EFF (F417A/F500A mutant of hNT5E) (human). Put plainly: DSF thermal shift, 1.5-fold molar excess of Fab, 1 mM ATP (hNT5EFF alone 47° C.).
For assay [4] the target is unchanged. Put plainly: DSF thermal shift, 1.5-fold molar excess of Fab, no ATP (hNT5EFF alone 47° C.).

Where a chain is given by its changes, count along the chain named.

B1: 1789 AM39 IgG (antibody, V domains shown)
VH: EVQLVESGGGLVQPGGSLRLSCAASGFNVSYSSIHWVRQAPGKGLEWVASIRGAGSDTRYADSVKGRFTISADTSKNTAYLQMNSLRAEDTAVYYCARNYWGWYPFYYFAFDYWGQGTLVTVSS
VL: DIQMTQSPSSLSASVGDRVTITCRASQSVSSAVAWYQQKPGKAPKLLIYSASSLYSGVPSRFSGSRSGTDFTLTISSLQPEDFATYYCQQGWDYPITFGQGTKVEIKR
In assay [1], B1 displayed an IC50 of NT5E activity on MDA-MB-231 cells, no ATP of 6.9 nM and an IC50 of NT5E activity on MDA-MB-231 cells, with ATP of 2.5 nM. This molecule registered an IC50 of NT5E activity on 4T1 cells, with ATP in assay [2] of 12.7 nM.

B2: 1789 AM42 IgG (antibody, V domains shown)
VH: B1 VH with S50K, A54G, G55H, S56Q, R59H
VL: B1 VL
With B2, in assay [1], the IC50 of NT5E activity on MDA-MB-231 cells, no ATP stood at 5.4 nM and the IC50 of NT5E activity on MDA-MB-231 cells, with ATP stood at 1.9 nM. The molecule also gave an IC50 of NT5E activity on 4T1 cells, with ATP in assay [2] of 8.8 nM.

B3: 1789 AM32 IgG (antibody, V domains shown)
VH: B1 VH with S50R, A54N, G55E, S56G, R59Y
VL: B1 VL
In assay [1], B3 displayed an IC50 of NT5E activity on MDA-MB-231 cells, no ATP of 5.6 nM and an IC50 of NT5E activity on MDA-MB-231 cells, with ATP of 2.3 nM. Besides, the IC50 of NT5E activity on 4T1 cells, with ATP in assay [2] came out at 9.1 nM.

B4: 1789 Fab (Fab, V domains shown)
VH: EVQLVESGGGLVQPGGSLRLSCAASGFNVSYSSIHWVRQAPGKGLEWVASISSSSGYTYYADSVKGRFTISADTSKNTAYLQMNSLRAEDTAVYYCARNYWGWYPFYYFAFDYWGQGTLVTV
VL: B1 VL
B4: the TM of NT5E in the presence of the Fab came out at 46 ° C in assay [3] and 47 ° C in assay [4].
